Test results from article PMC11417369, “DNA sequence and chromatin differentiate sequence-specific transcription factor binding in the human malaria parasite Plasmodium falciparum”.
Residue numbers refer to the chain shown, from its start.

T1: AP2-LT D1 (Plasmodium falciparum, UniProt Q8IAM1 2520-2577)
T1 sequence: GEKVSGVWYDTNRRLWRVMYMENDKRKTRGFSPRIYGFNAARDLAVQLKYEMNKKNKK

B1: CACACA_site8822 (dsDNA)
DNA 1: ATTATGCACCAACACACACACACACTCCTAAAAAAT
DNA 2: ATTTTTTAGGAGTGTGTGTGTGTGTTGGTGCATAAT
B2: CACACA_site7896 (dsDNA)
DNA 1: TATACATACATACATACACACACACCGATATATATA
DNA 2: TATATATATCGGTGTGTGTGTATGTATGTATGTATA
B3: CACACA_site7437 (dsDNA)
DNA 1: AGATAAAAAAAGTACACACACACATATATTTATATA
DNA 2: TATATAAATATATGTGTGTGTGTACTTTTTTTATCT
B4: CACACA_site3390 (dsDNA)
DNA 1: ACAAAATAAAAACACACACACAAACACAAAAAAATA
DNA 2: TATTTTTTTGTGTTTGTGTGTGTGTTTTTATTTTGT
B5: CACACA_site4429 (dsDNA)
DNA 1: TAAACATACAGATACACACACACACCCACAGAGACA
DNA 2: TGTCTCTGTGGGTGTGTGTGTGTATCTGTATGTTTA
B6: CACACA_site8266 (dsDNA)
DNA 1: TATGCATATACACAAGCACACATATATATATATATA
DNA 2: TATATATATATATATGTGTGCTTGTGTATATGCATA
B7: CACACA_site2423 (dsDNA)
DNA 1: GTGCATAAATCATACACACACACATATATATATATA
DNA 2: TATATATATATATGTGTGTGTGTATGATTTATGCAC
B8: CACACA_site6577 (dsDNA)
DNA 1: AGCAACCCCCTAGCTACACACATATAGATATAAATA
DNA 2: TATTTATATCTATATGTGTGTAGCTAGGGGGTTGCT
B9: CACACA_site452 (dsDNA)
DNA 1: CACAAAGACACAAACACACACACACCCACATACATA
DNA 2: TATGTATGTGGGTGTGTGTGTGTTTGTGTCTTTGTG
B10: CACACA_site5591 (dsDNA)
DNA 1: ATAATATAAACATACACACACACATATATATATATA
DNA 2: TATATATATATATGTGTGTGTGTATGTTTATATTAT
B11: CACACA_site9096 (dsDNA)
DNA 1: TCATAAATTAAACACACACACACATCTGGATACCCC
DNA 2: GGGGTATCCAGATGTGTGTGTGTGTTTAATTTATGA
B12: CACACA_site2539 (dsDNA)
DNA 1: TATATATAGAAACACACACACACATATATATATATT
DNA 2: AATATATATATATGTGTGTGTGTGTTTCTATATATA
B13: CACACA_site5592 (dsDNA)
DNA 1: B12 DNA 1 with T1A, T7A, G9C, C23T
DNA 2: B12 DNA 2 with G14A, C28G, A30T, A36T
B14: CACACA_site4294 (dsDNA)
DNA 1: TTTATTAATGGACACACACACACACCCAAAATAAAA
DNA 2: TTTTATTTTGGGTGTGTGTGTGTGTCCATTAATAAA
B15: CACACA_site242 (dsDNA)
DNA 1: B14 DNA 1 with T9G, G10A, G11A
DNA 2: B14 DNA 2 with C26T, C27T, A28C
B16: CACACA_site7828 (dsDNA)
DNA 1: TATATAAATAGACACACACACACCTTATAATTACTA
DNA 2: TAGTAATTATAAGGTGTGTGTGTGTCTATTTATATA
B17: CACACA_site3391 (dsDNA)
DNA 1: AAAAAAAAAAAAAACACACATACACGCCCACCCATA
DNA 2: TATGGGTGGGCGTGTATGTGTGTTTTTTTTTTTTTT
B18: CACACA_site8278 (dsDNA)
DNA 1: GTAACATACACATATACACACACACCGATATACATA
DNA 2: TATGTATATCGGTGTGTGTGTATATGTGTATGTTAC

target: T1, AP2-LT D1; assay: gcPBM; about 25 ug protein; PBS, 1% milk, 0.2 mg/ml BSA, salmon testes DNA, 0.03% Triton X-100; settings: tags: N-terminal GST (pGEX-4T-1), kept; label: surface-attached array probe

Point of comparison: B11, binding signal 10.1 ln median PBM intensity, better of two orientations. Against it:
- B1 — lower, 9.97 ln median PBM intensity, better of two orientations
- B2 — lower, 9.94 ln median PBM intensity, better of two orientations
- B3 — lower, 9.98 ln median PBM intensity, better of two orientations
- B4 — the same, 10.1 ln median PBM intensity, better of two orientations
- B5 — the same, 10.1 ln median PBM intensity, better of two orientations
- B6 — the same, 10.1 ln median PBM intensity, better of two orientations
- B7 — lower, 10 ln median PBM intensity, better of two orientations
- B8 — lower, 9.99 ln median PBM intensity, better of two orientations
- B9 — lower, 10 ln median PBM intensity, better of two orientations
- B10 — the same, 10.1 ln median PBM intensity, better of two orientations
- B12 — the same, 10.1 ln median PBM intensity, better of two orientations
- B13 — lower, 9.96 ln median PBM intensity, better of two orientations
- B14 — the same, 10.1 ln median PBM intensity, better of two orientations
- B15 — the same, 10.1 ln median PBM intensity, better of two orientations
- B16 — higher, 10.2 ln median PBM intensity, better of two orientations
- B17 — the same, 10.1 ln median PBM intensity, better of two orientations
- B18 — lower, 10 ln median PBM intensity, better of two orientations
